From publication PMC9123187

Tests used:
[1] = target: Cas7d, backbone subunit of type I-D Cascade (Synechocystis); test: cryo-EM structure; type I-D Cascade (co-expressed subunits with crRNA, purified as a complex) bound to a dsDNA target with GTT PAM, 1:2 Cascade:target, 30 °C 30 min; 2.9 Å
[2] = target: Cas11d, small subunit of type I-D Cascade (Synechocystis); test: as above
[3] = target: Type I-D Cascade WT (assay sample) (Synechocystis) (UniProt Q6ZEI7+Q6ZEI6+Q6ZEI5+Q6ZEI7); test: EMSA; details: EMSA: 10 mM HEPES-NaOH pH 7.5, 100 mM KCl, 5% glycerol, 1 mM DTT, 0.01% Triton X-100, 1 µg BSA, 0.1 µg poly(dI.dC) (dsDNA) or 0.26 µg E. coli tRNA (ssRNA) in …

| Substance | Kd [3] [nM] | also measured |
| --- | --- | --- |
| Cas7d, backbone subunit of type I-D Cascade (natural protein) | – | stoichiometry N [1]: 7 |
| Cas11d, small subunit of type I-D Cascade (natural protein) | – | stoichiometry N [2]: 2 |
| GCAUGACGGAUCGAGGCAUUGAAAGCGACCGCCAGGGGCACAACAAUCAACGUGAUACUA / ACUGAAACGAUUGUUGUGCCCCUGGCGGUCGCUUUCAAUGCCU [PF3167 AAC-PFS ssRNA + crRNA] | 11 | – |
| GCAUGACGGAUCGAGGCAUUGAAAGCGACCGCCAGGGGCACAACAAUCACGGUGAUACUA / ACUGAAACGAUUGUUGUGCCCCUGGCGGUCGCUUUCAAUGCCU [PF5591 ACG-PFS ssRNA + crRNA] | 11 | – |
